# T1: CD19 expressed on the cell surface (UniProt P15391 20-556)
# T1 construct: whole, on cells; also called HEK293-CD19 cells; CD19 on Daudi cells
# T1 sequence (looked up): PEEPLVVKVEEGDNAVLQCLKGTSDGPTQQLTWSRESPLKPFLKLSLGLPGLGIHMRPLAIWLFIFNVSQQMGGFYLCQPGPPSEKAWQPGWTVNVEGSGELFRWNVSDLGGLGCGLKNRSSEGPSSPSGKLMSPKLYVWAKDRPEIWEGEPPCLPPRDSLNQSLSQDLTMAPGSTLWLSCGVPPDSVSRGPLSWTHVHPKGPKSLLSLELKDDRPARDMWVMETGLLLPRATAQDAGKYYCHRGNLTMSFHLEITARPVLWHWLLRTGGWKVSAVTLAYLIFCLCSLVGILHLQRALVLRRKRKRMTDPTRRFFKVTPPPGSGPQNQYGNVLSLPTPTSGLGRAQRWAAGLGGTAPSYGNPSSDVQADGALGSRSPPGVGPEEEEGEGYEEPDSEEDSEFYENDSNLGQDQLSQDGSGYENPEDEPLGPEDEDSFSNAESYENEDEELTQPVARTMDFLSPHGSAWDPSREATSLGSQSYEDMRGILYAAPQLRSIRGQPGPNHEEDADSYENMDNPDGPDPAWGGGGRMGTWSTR
# T2: recombinant CD19-His protein (human, UniProt P15391 20-291)
# T2 construct: Immobilized on the Octet biosensor; also called Human CD19
# T2 sequence (looked up): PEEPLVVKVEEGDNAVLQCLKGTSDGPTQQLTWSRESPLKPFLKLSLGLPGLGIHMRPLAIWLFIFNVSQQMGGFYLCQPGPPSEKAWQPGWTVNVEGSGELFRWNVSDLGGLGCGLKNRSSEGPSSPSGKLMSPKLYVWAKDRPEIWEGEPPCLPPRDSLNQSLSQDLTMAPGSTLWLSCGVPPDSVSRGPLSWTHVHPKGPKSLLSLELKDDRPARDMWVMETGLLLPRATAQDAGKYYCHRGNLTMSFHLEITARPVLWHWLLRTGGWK
# B1: BTN2A1/3A1-Fc-CD19scFv GADLEN protein (heterodimer with charged polarized linkers) (Fc fusion)
# chain 1: QFIVVGPTDPILATVGENTTLRCHLSPEKNAEDMEVRWFRSQFSPAVFVYKGGRERTEEQMEEYRGRTTFVSKDISRGSVALVIHNITAQENGTYRCYFQEGRSYDEAILHLVVAGLGSKPLISMRGHEDGGIRLECISRGWYPKPLTVWRDPYGGVAPALKEVSMPDADGLFMVTTAVIIRDKSVRNMSCSINNTLLGQKKESVIFIPESFMPSVSPCAGSGSRKGGKRGSKYGPPCPPCPAPEFLGGPSVFLFPPKPKDQLMISRTPEVTCVVVDVSQEDPEVQFNWYVDGVEVHNAKTKPREEQFNSTYRVVSVLTVLHQDWLSGKEYKCKVSSKGLPSSIEKTISNATGQPREPQVYTLPPSQEEMTKNQVSLTCLVKGFYPSDIAVEWESNGQPENNYKTTPPVLDSDGSFFLYSRLTVDKSRWQEGNVFSCSVLHEALHNHYTQKSLSLSLGKDEGGEDGSDIQMTQTTSSLSASLGDRVTISCRASQDISKYLNWYQQKPDGTVKLLIYHTSRLHSGVPSRFSGSGSGTDYSLTISNLEQEDIATYFCQQGNTLPYTFGGGTKLEITGGGSGGGSGGGSEVKLQESGPGLVAPSQSLSVTCTVSGVSLPDYGVSWIRQPPRKGLEWLGVIWGSETTYYNSALKSRLTIIKDNSKSQVFLKMNSLQTDDTAIYYCAKHYYYGGSYAMDYWGQGTSVTVSS
# chain 2: not shown
# notes: The residue ranges were counted from the printed parts; also called BTN2A1/3A1-Fc-CD19scFv heterodimeric protein; human BTN2A1/3A1-Fc-CD19scFv GADLEN protein
# Key:
# [1] = molecular target: T1, CD19 expressed on the cell surface; experiment: flow cytometry on Daudi cells; Daudi cells (CD19+), flow cytometry
# [2] = molecular target: T2, recombinant CD19-His protein; experiment: Octet (ForteBio) BLI, recombinant CD19-His immobilized on biosensor
# Text: A heterodimer lacking CD19scFv was used as a negative control.
# [3] = molecular target: T1, CD19 expressed on the cell surface; experiment: flow cytometry on HEK293-CD19 cells, anti-Fc detection
binder,measurement,setting,value
B1,EC50,[1],5 nM
same,Kd,[2],13.8 nM
same,EC50,[3],0.89 nM
